Experimental data published in patent US20020193564A1, “Oligomeric chaperone proteins” (priority 1999, published 2002).

Experiments:
[1] = test system: E. coli SV2 groEL44; assay: In vivo complementation of ts groEL44 at 43° C.; format: cell-based; conditions: for Relative colony forming ability, SV2 groEL44: plasmids pJC, relative to growth at 30° C.
Experimental: (§1) In vivo Complementation Experiments.
(§2) Complementation experiments were performed by transforming electro-competent SV2 or SV6 cells with the pJC series of expression vectors and plating an aliquot of the transformation reactions directly at 43° C. The percentage of viable cells relative to the growth at 30° C. was determined. A representative number of clones which grew at 43° C. were incubated in absence of any selective markers at permissive temperature. After prolonged growth the loss of the pJC plasmids and the ts phenotype were verified. Each experiment was performed in duplicate. Plasmids carrying no groE genes or encoding the GroE proteins were used as negative or positive controls, respectively.

[2] = test system: E. coli SV6 groEL673; assay: In vivo complementation of ts groEL673 at 43° C.; format: cell-based; conditions: for Relative colony forming ability, SV6 groEL673: plasmids pJC, relative to growth at 30° C.
Experimental: as §1, §2

[3] = test system: bacteriophage λ; assay: Growth of bacteriophage λ in transformed groEL strains; format: cell-based, bacteriophage λ (b2cI) in E. coli; design: key to Growth of bacteriophage λ, SV1 (groEL^+) / Growth of bacteriophage λ, SV2 groEL44: +++: normal plaque-forming ability relative to wild-type groEL^+ strain, in terms of both number and size; ++: 5-fold fewer plaques relative to wild-type groEL^+ strain, or both; 10-fold fewer plaques, or plaque size reduced relative to wild-type groEL^+ strain, or both; +/−: 10^2-fold fewer plaques and plaque size reduced relative to wild-type groEL^+ strain; no visible plaques (<10^−4); conditions: for Effect of over-expression on λ growth / plaque counts: SV1 (groE^+)
Text: (§3) The E. Coli strains used in this study were: C41(DE3), a mutant of BL21(DE3) capable of expressing toxic genes (Miroux, B. & Walker, J. E. (1996) J. Mol. Biol. 260, 289-298); SV2 (B178groEL44), SV3 (B178groEL59) and SV6 (B178groEL673): isogenic strains carrying temperature-sensitive alleles of groEL; SV1(=B178) (Georgopoulos, C., Hendrix, R. W., Casjens, S. R. & Kaiser, A. D. (1973) J. Mol. Biol. 76, 45-60), A190 (ΔgroEL::kan^R) [pBAD-EL] (Ivic, A., Olden, D., Wallington, E. J. & Lund, P. A. (1997) Gene 194, 1-8), and TG1 (Gibson, T. J. (1984) Ph.D. thesis, University of Cambridge, U.K). Bacteriophage λb2cI (Zeilstra-Ryalls, J., Fayet, O., Baird, L. & Georgopoulos, C. (1993) J. Bacteriol. 175, 1134-1143) was used according to standard methods (Arber, W., Enquist, L., Hohn, B., Murray, N. E. & Murray, K. (1983) in Lambda II., ed. R. W. Hendrix, J. W. r., F. W. Stahl and R. A. Weisberg (Cold Spring Harbor Laboratory, Cold Spring Harbor, N.Y.), pp. 433-466); plaque formation was assayed at 30° C. T4D0, a derivative of bacteriophage T4 (Zeilstra-Ryalls, J., Fayet, O., Baird, L. & Georgopoulos, C. (1993) J. Bacteriol. 175, 1134-1143), was used according to standard methods (Karam, J. D. (1994) Molecular biology of bacteriophage T4. (American Society for Microbiology, Washington, D.C.)); plaque formation was assayed at 37° C.

[4] = test system: bacteriophage T4; assay: Growth of bacteriophage T4 in transformed groEL strains; format: cell-based, bacteriophage T4 (T4D0) in E. coli; design: key to Growth of bacteriophage T4, SV1 (groEL^+) / Growth of bacteriophage T4, SV2 groEL44 / Growth of bacteriophage T4, SV3 GroEL59 / Growth of bacteriophage T4, SV6 groEL673: +++: normal plaque-forming ability relative to wild-type groEL^+ strain, in terms of both number and size; ++: 5-fold fewer plaques relative to wild-type groEL^+ strain, or both; 10-fold fewer plaques, or plaque size reduced relative to wild-type groEL^+ strain, or both; +/−: 10^2-fold fewer plaques and plaque size reduced relative to wild-type groEL^+ strain; no visible plaques (<10^−4)
Text: as §3

Row | Molecule | Relative colony forming ability, SV2 groEL44 [1] | Relative colony forming ability, SV6 groEL673 [2] | Effect of over-expression on λ growth / plaque counts [3] | Complementation of the groEL44 defect in SV2 [1] | Complementation of the groEL673 defect in SV6 [2] | Complementation of groEL mutant strains for bacteriophage λ growth [3] | Growth of bacteriophage λ, SV1 (groEL^+) ([3]; 30° C., SV1) | Growth of bacteriophage λ, SV2 groEL44 ([3]; 30° C., SV2) | Growth of bacteriophage λ, SV3 GroEL59 ([3]; 30° C., SV3) | Growth of bacteriophage λ, SV6 groEL673 ([3]; 30° C., SV6) | Growth of bacteriophage T4, SV1 (groEL^+) ([4]; 37° C., SV1) | Growth of bacteriophage T4, SV2 groEL44 ([4]; 37° C., SV2) | Growth of bacteriophage T4, SV3 GroEL59 ([4]; 37° C., SV3) | Growth of bacteriophage T4, SV6 groEL673 ([4]; 37° C., SV6) | Effect of over-expression on bacteriophage T4 growth in groEL strains ([4]; groEL strains)
1 | GroES-EL: plasmid encoding the GroE proteins GroES and GroEL, positive control | 1 | 1 | four-fold drop in plaques |  |  |  |  |  |  |  |  |  |  |  | 
2 | sht-GroEL(193-335): short histidine tail minichaperone, GroEL residues 193-335 (protein, UniProt P0A6F5 193-335, looked up, fragment, short His tag) MQFDRGYLSPYFINKPETGAVELESPFILLADKKISNIREMLPVLEAVAKAGKPLLIIAEDVEGEALATLVVNTMRGIVKVAAVKAPGFGDRRKAMLQDIATLTGGTVISEEIGMELEKATLEDLGQAKRVVINKDTTTIIDG | 0.05-0.09 | 0.03-0.05 |  | complements the defect in SV2 | less well |  |  |  |  |  |  |  |  |  | 
3 | GroES(1-97): co-chaperone of GroEL, seven membered ring of 10 kD subunits (protein, UniProt P0A6F9 1-97, looked up) Co-chaperonin GroES: MNIRPLHDRVIVKRKEVETKSAGGIVLTGSAAAKSTRGEVLAVGNGRILENGEVKPLDVKVGDIVIFNDGYGVKSEKIDNEEVLIMSESDILAIVEA | 5 × 10^−3 | <10^−4 | no effect |  |  | allele-specific complementation | +++ | +++ | − (no visible plaques (<10^−4)) | − (no visible plaques (<10^−4)) | +++ | +++ | +++ | − (no visible plaques (<10^−4)) | allele-specific complementation
4 | sht-GroEL(191-345): short histidine tail minichaperone, GroEL residues 191-345 (protein, UniProt P0A6F5 191-345, looked up, fragment, short His tag) EGMQFDRGYLSPYFINKPETGAVELESPFILLADKKISNIREMLPVLEAVAKAGKPLLIIAEDVEGEALATLVVNTMRGIVKVAAVKAPGFGDRRKAMLQDIATLTGGTVISEEIGMELEKATLEDLGQAKRVVINKDTTTIIDGVGEEAAIQGR | 0.01-0.02 | 0.07-0.09 |  |  | complemented |  |  |  |  |  |  |  |  |  | 
